In patent publication US20240279318A1 (published 2024):
Values belong to the binder of their own block, whether it stands above or below them.

Key:
[1] = biological target: AFP158/HLA-A*02:01 complex; assay: SPR
AFP158 loaded T2 cells = AFP158 loaded T2 cells (human;, UniProt P61769 21-119); assay: flow cytometry
A*02:05 [2] = assay: SPR; head prints KD(1/s)
A*02:07 [3] = assay: SPR; head prints KD(1/s)
A*02:06 [4] = assay: SPR; head prints KD(1/s)
A*02:11 [5] = assay: SPR; head prints KD(1/s)
A*02:03 [6] = assay: SPR; head prints KD(1/s)
A*02:02 [7] = assay: SPR; head prints KD(1/s)
A*02:06 [8] = assay: SPR
A*02:11 [9] = assay: SPR
A*02:05 [10] = assay: SPR; low fitting confidence
A*02:07 [11] = assay: SPR; low fitting confidence
A*02:03 [12] = assay: SPR; low fitting confidence
A*02:02 [13] = assay: SPR; low fitting confidence
A*02:05 [14] = assay: SPR
A*02:11 [15] = assay: SPR; low fitting confidence
A*02:03 [16] = assay: SPR
A*02:06 [17] = assay: SPR; low fitting confidence
A*02:07 [18] = assay: SPR
A*02:02 [19] = assay: SPR
A*02:07 [20] = assay: SPR; low fitting confidence; remark: listed apart in the source
A*02:11 [21] = assay: SPR; low fitting confidence; remark: listed apart in the source
A*02:02 [22] = assay: SPR; low fitting confidence; remark: listed apart in the source
[23] = biological target: AFP158/HLA-A*02:01 complex; assay: SPR; remark: listed apart in the source
A*02:05 [24] = assay: SPR; remark: listed apart in the source
A*02:06 [25] = assay: SPR; remark: listed apart in the source
A*02:03 [26] = assay: SPR; remark: listed apart in the source
A*02:07 [27] = assay: SPR; remark: listed apart in the source
A*02:11 [28] = assay: SPR; remark: listed apart in the source
[29] = biological target: AFP158/HLA-A*02:01 complex; assay: SPR; head prints KD(1/s)

B1: AS170036 VL1VH1 scFv-mIgG2aFc (Fc fusion)
chain: QSALTQPRSVSGSPGQSVTISCAGTSSDVGSENYVSWYQQHPGKAPKLMIYQVNKRASGVPDRFSGSKSGNTASLTISGLQAEDEADYYCASYRSSDHNIVFGGGTKLTVLGGGGSGGGGSGGGGSEVQLVESGGGLVQPGGSLRLSCAASGFTFSSYAMSWVRQAPGKGLEWVSTINSGTGSPYYADSVKGRFTISRDNSKNTLYLQMNSLRAEDTAVYYCAKNFFDGSWFLGPPAMDYWGQGTLVTVSS
Kd [1]: 256 nM | EC50 (AFP158 loaded T2 cells): 8.79 nM

B5: AS170036 (Fc fusion)
chain: QLVLTQPSSVSGTPGQTVTISCAGTSSDVGSENYVSWYRQLPGTAPKLLIYQVNKRASGIADRFSGSKSGNTASMTISGLQSADEADYYCASYRSSDHNIVFGGGTHLTVLGGGGSGGGGSGGGGSAVQLVESGGGLVQPGGSLRLSCTASGFTFSSYAMSWVRQAPGKGLEWVSTINSGTGSPYYADSVKGRFTISRDNAKNTLYLQLNSLKTEDTAMYYCAKNFFDGSWFLGPPAMDYWGKGTLVTISS
Kd (A*02:03 [16]): 38000 nM | Kd (A*02:05 [10]): > 100000 nM | Kd (A*02:07 [11]): > 4800 nM | Kd (A*02:06 [17]): > 3100 nM | Kd (A*02:11 [15]): > 28000 nM | Kd (A*02:02 [13]): > 5000 nM

B7: AS170036 VL1VH1-56N98I (scFv)
scFv: QSALTQPRSVSGSPGQSVTISCAGTSSDVGSENYVSWYQQHPGKAPKLMIYQVNKRASGVPDRFSGSKSGNTASLTISGLQAEDEADYYCASYRSSDINIVFGGGTKLTVLGGGGSGGGGSGGGGSEVQLVESGGGLVQPGGSLRLSCAASGFTFSSYAMSWVRQAPGKGLEWVSTINSGTNSPYYADSVKGRFTISRDNSKNTLYLQMNSLRAEDTAVYYCAKNFFDGSWFLGPPAMDYWGQGTLVTVSSHHHHHH
Kd (A*02:07 [20]): > 17000 nM | Kd (A*02:11 [21]): > 500 nM | Kd (A*02:02 [22]): > 3200 nM | Kd [23]: 41 nM | Kd (A*02:05 [24]): 2100 nM | Kd (A*02:06 [25]): 570 nM | Kd (A*02:03 [26]): 2700 nM

B8: AS170036 VL1VH1-56Y98I108S (scFv)
scFv: QSALTQPRSVSGSPGQSVTISCAGTSSDVGSENYVSWYQQHPGKAPKLMIYQVNKRASGVPDRFSGSKSGNTASLTISGLQAEDEADYYCASYRSSDINIVFGGGTKLTVLGGGGSGGGGSGGGGSEVQLVESGGGLVQPGGSLRLSCAASGFTFSSYAMSWVRQAPGKGLEWVSTINSGTYSPYYADSVKGRFTISRDNSKNTLYLQMNSLRAEDTAVYYCAKNFFDGSWFLSPPAMDYWGQGTLVTVSSHHHHHH
Kd (A*02:02 [22]): > 4500 nM | Kd [23]: 2.4 nM | Kd (A*02:05 [24]): 2400 nM | Kd (A*02:07 [27]): 1000 nM | Kd (A*02:06 [25]): 69 nM | Kd (A*02:11 [28]): 160 nM | Kd (A*02:03 [26]): 950 nM

Next, values leading:

Kd (A*02:05 [2]): 3800 nM | Kd (A*02:07 [3]): 2500 nM | Kd (A*02:06 [4]): 520 nM | Kd (A*02:11 [5]): 4500 nM | Kd (A*02:03 [6]): 35000 nM | Kd (A*02:02 [7]): 660 nM
B2: AS190259 (Fc fusion)
chain: QSVVTQPSAVSVSLEETATITCQGGGYYVNWYQQKPGQAPVLVIYLNTNRPSGIPERFSASKSGGTATLTINGAQAEDEAAYYCQSADSSGNSAVFGGGTHLTVLGGGGSGGGGSGGGGSQVQLVQSGGGLVQPGGSLRLSCAASGFTFSSYAMSWVRQAPGKGLEWVSAINSGGGSTYYADSVKGRFTISRDNAKNTLYLQLNSLKTEDTAMYYCAKAASGYGGSWWGDATLDAWGQGTLVTVSS

Kd (A*02:06 [8]): 220 nM | Kd (A*02:11 [9]): 700 nM | Kd (A*02:05 [10]): > 17000 nM | Kd (A*02:07 [11]): > 1700 nM | Kd (A*02:03 [12]): > 6100 nM | Kd (A*02:02 [13]): > 77000 nM
B3: AS179723 VL1g1VH1g1-N73Y (Fc fusion)
chain: QSVLTQPPSASGTPGQRVTISCSGSSNNIGGNYVNWYQQLPGTAPKLLIYDNKNRPSGVPDRFSGSKSGTSASLAISGLQSEDEADYYCASWDDSLSAVVFGGGTKLTVLGGGGSGGGGSGGGGSEVQLVESGGGLVQPGGSLRLSCAASGFTFLNYAMSWVRQAPGKGLEWVSSNSGAGSTYYADSVKGRFTISRDYSKNTLYLQMNSLRAEDTAVYYCAKGTNVGSWSSLHYWGQGTLVTVSS

Kd (A*02:05 [14]): 17000 nM | Kd (A*02:06 [8]): 220 nM | Kd (A*02:07 [11]): > 2400 nM | Kd (A*02:11 [15]): > 1000 nM | Kd (A*02:03 [12]): > 11000 nM | Kd (A*02:02 [13]): > 29000 nM
B4: AS179732 VL1g1VH1g1-N73Y (Fc fusion)
chain: QSVLTQPPSASGTPGQRVTISCSGSSSNIGGNYVNWYQQLPGTAPKLLIYDNSNRASGVPDRFSGSKSGTSASLAISGLQSEDEADYYCASWDDSLSGAVFGGGTKLTVLGGGGSGGGGSGGGGSEVQLVESGGGLVQPGGSLRLSCAASGFTFLNYAMSWVRQAPGKGLEWVSSNSGAGSTYYADSVKGRFTISRDYSKNTLYLQMNSLRAEDTAVYYCAKGTNVGSWSSLHYWGQGTLVTVSS

Kd (A*02:05 [14]): 29000 nM | Kd (A*02:07 [18]): 1270 nM | Kd (A*02:06 [8]): 114 nM | Kd (A*02:11 [9]): 297 nM | Kd (A*02:03 [16]): 2570 nM | Kd (A*02:02 [19]): 32200 nM
B6: AS179723 (Fc fusion)
chain: QAGLTQPPSMSGSPRQSVTISCTGSSNNIGGNYVNWYQHLPGTAPKLLIYDNKNRPSGVPEQISGSKSGSSASLTITGLQAEDEGDYYCASWDDSLSAVVFGGGTHLTVLGGGGSGGGGSGGGGSEVQLVESGGGLVQPGGSLRLSCAASGFTFLNYAMSWVRQAPGKGLEWVSSNSGAGSTYYSDSVKGRFTISRDYAKNVVYLQLNSLKTEDTGMYYCAKGTNVGSWSSLHYWGQGTQVTVSS

Kd (A*02:05 [2]): 7000 nM | Kd (A*02:07 [3]): 3500 nM | Kd (A*02:06 [4]): 800 nM | Kd (A*02:11 [5]): 6700 nM | Kd (A*02:03 [6]): 48000 nM | Kd (A*02:02 [7]): 970 nM
B9: AS190259 VL1VH1 (Fc fusion)
chain: SSELTQDPAVSVALGQTVRITCQGGGYYVNWYQQKPGQAPVLVIYLNTNRPSGIPDRFSGSSSGNTASLTITGAQAEDEADYYCQSADSSGNSAVFGGGTKLTVLGGGGSGGGGSGGGGSEVQLVESGGGLVQPGGSLRLSCAASGFTFSSYAMSWVRQAPGKGLEWVSAINSGGGSTYYADSVKGRFTISRDNSKNTLYLQMNSLRAEDTAVYYCAKAASGYGGSWWGDATLDAWGQGTLVTVSS

Kd [29]: 130 nM | EC50 (AFP158 loaded T2 cells): 3.56 nM
B10: AS190259 VL1VH1 scFv-mIgG2aFc (Fc fusion)
chain: SSELTQDPAVSVALGQTVRITCQGGGYYVNWYQQKPGQAPVLVIYLNTNRPSGIPDRFSGSSSGNTASLTITGAQAEDEADYYCQSADSSGNSAVFGGGTKLTVLGGGGSGGGGSGGGGSEVQLVESGGGLVQPGGSLRLSCAASGFTFSSYAMSWVRQAPGKGLEWVSAINSGGGSTYYADSVKGRFTISRDNSKNTLYLQMNSLRAEDTAVYYCAKAASGYGGSWWGDATLDAWGQGTLVTVSS
